Key:
[1] = biological target: allophycocyanin αβ dimer (purified APC, Sigma-Aldrich A7472) (UniProt P72504); assay: native MS; purified APC, 1 μM hexamer (6 μM bilin); 100 mM ammonium acetate; without metal ions and with Ag+, Cu2+, Fe2+/3+ or Zn2+ (oligomeric equilibrium unchanged on a short timescale; prolonged exposure to Cu2+ gives dissociation towards the dimer)
[2] = biological target: phycocyanin αβ dimer (Arthrospira maxima CCAP 1475/9) (Arthrospira maxima (CCAP 1475/9)); assay: native MS; purified PC without metal ions, 1 μM hexamer (Fig. 1D); 100 mM ammonium acetate pH 6.8; nano-electrospray, Orbitrap; hexamer to αβ dimers
[3] = biological target: phycocyanin αβ dimer (Arthrospira maxima CCAP 1475/9) (Arthrospira maxima (CCAP 1475/9)); assay: native MS; purified PC (24 μM bilin) with Ag+ at 0.25 and 0.5 bilin equivalents; 100 mM ammonium acetate

| stoichiometry N [1] | stoichiometry N [2] | stoichiometry N [3] | Substance |
| --- | --- | --- | --- |
| 3 | – | – | allophycocyanin αβ dimer (purified APC, Sigma-Aldrich A7472) (from UniProt P72504 1-161; P72505 1-161) (complex) |
| – | 3 | 2 | phycocyanin αβ dimer (Arthrospira maxima CCAP 1475/9) (from UniProt P72509 1-162; P72508 1-172) (complex) |

Source: PMC9542875
